Paper PMC7126683 (Structure (London, England : 1993), 2005)

Target: the molecule itself
Assay: SEC

B1: IBV-N218-329, recombinant C-terminal domain (residues 218-329) of the IBV nucleocapsid protein (domain or fragment, UniProt P69596 218-329, looked up)
chain: KADEMAHRRYCKRTIPPNYRVDQVFGPRTKGKEGNFGDDKMNEEGIKDGRVTAMLNLVPSSHACLFGSRVTPKLQLDGLHLRFEFTTVVPCDDPQFDNYVKICDQCVDGVGT
stoichiometry N: 2
